{"source": "paper PMC10871369", "about": "(bioRxiv, 2024)", "molecules": {"B1": {"name": "IER2: helix-loop-helix B55 binder (protein, UniProt Q9BTL4 1-223, looked up)", "Immediate early response gene …": "MEVQKEAQRIMTLSVWKMYHSRMQRGGLRLHRSLQLSLVMRSARELYLSAKVEALEPEVSLPAALPSDPRLHPPREAESTAETATPDGEHPFPEPMDTQEAPTAEETSACCAPRPAKVSRKRRSSSLSDGGDAGLVPSKKARLEEKEEEEGASSEVADRLQPPPAQAEGAFPNLARVLQRRFSGLLNCSPAAPPTAPPACEAKPACRPADSMLNVLVRAVVAF"}, "B2": {"name": "CDCA4: helix-loop-helix B55 binder (SERTA domain) (protein, UniProt Q9BXL8 1-241, looked up)", "Cell division …": "MFARGLKRKCVGHEEDVEGALAGLKTVSSYSLQRQSLLDMSLVKLQLCHMLVEPNLCRSVLIANTVRQIQEEMTQDGTWRTVAPQAAERAPLDRLVSTEILCRAAWGQEGAHPAPGLGDGHTQGPVSDLCPVTSAQAPRHLQSSAWEMDGPRENRGSFHKSLDQIFETLETKNPSCMEELFSDVDSPYYDLDTVLTGMMGGARPGPCEGLEGLAPATPGPSSSCKSDLGELDHVVEILVET"}}, "key": {"B55 [1]": {"tested_on": "B55", "test": "Binding of proteins to panel of purified B55 mutants", "conditions": "panel of B55 mutants covering patch 1-3 residues"}, "B55 [2]": {"tested_on": "B55", "test": "MS of B55 WT, V228A, I284A, S287A and D340A immunopurifications", "format": "binding", "conditions": "B55 S287A vs WT immunopurifications"}}, "data": [{"molecule": "B1", "values": [{"measurement": "B55 patch requirement for binding", "setting": "B55 [1]", "result": "requirements from residues in patch 1 and 3"}, {"measurement": "requirement of B55 S287 (patch 2) for binding", "setting": "B55 [2]", "result": "does not"}]}, {"molecule": "B2", "values": [{"measurement": "B55 patch requirement for binding", "setting": "B55 [1]", "result": "requirements from residues in patch 1 and 3"}]}]}
